These results are taken from patent US20220282255, “APTAMER FOR TGF-BETA1 AND USE OF SAME” (RIBOMIC INC., published 2022).

Substitutions are numbered along the chain they refer to.

Data set [1] concerns the target T1, TGF-β1 (Homo sapiens, UniProt P01137 P01137:279-390). In words: SPR; +. To be noted: tags: Recombinant Human TGF-β1, Peprotech; chain copies: 2 (homodimer, inferred). A general note: SPR reads the build-up and loss of mass on a sensor chip optically.
For data set [2], the target named is T1, TGF-β1. Nature of the data set: cell_activity; SBE-luciferase HEK293, 80 pM:20 nM. The following applies: tags: Recombinant Human TGF-β1, Peprotech; chain copies: 2 (homodimer, inferred). The protocol: (§1) Whether the nucleic acids of SEQ ID NOs: 4-13, 17-22, 26-28 inhibit the activity of TGF-β1 was evaluated by a cell assay system that monitors Smad signaling pathway known to be activated by the stimulation of TGF-β. To be specific, photinus luciferase equipped with SBE (Smad-binding element) in the promoter region was used as a reporter (pGL4.48[luc2P/SBE/Hygro] Vector, Promega KK). Together with this SBE-induced photinus luciferase reporter plasmid, a renillaluciferase expression plasmid (pGL4.74[hRluc/TK] Vector, Promega KK) was mixed at a ratio of 20:1 as a standardized control for transfection efficiency, and transfected into HEK293 cells. The transfected HEK293 cells were re-seeded in a 96-well plate and cultured until confluent. TGF-β1 and a mixture of nucleic acid aptamers of SEQ ID NOs: 4-13, 17-22, 26-28 synthesized using T7 RNA polymerase (Y639F) were added thereto to respective final concentrations of 80 pM, 20 nM, and the cells were cultured for 3 hr. Thereafter, the expression levels of photinus luciferase and renillaluciferase were confirmed using Dual-Luciferase (registered trade mark) Reporter Assay System (Promega KK). The measurement value of photinus luciferase in each sample was corrected with the measured value of renillaluciferase, and the relative expression level of each sample was calculated by setting the ratio of photinus luciferase and renillaluciferase in a sample free of addition of TGF-β1 as 1. […] When a nucleic acid pool of 35N, 40N or 50N (SEQ ID NO: 14, 1, 23) was used as a negative control and a known TGF-β antibody (R&D, MAB1835) was used as a positive control, the same treatment and measurement were performed.

Data set [3] has as its target T1, TGF-β1. Nature of the data set: SPR; receptor-binding inhibition, 10 nM:30 nM. To be noted: tags: Recombinant Human TGF-β1, Peprotech; chain copies: 2 (homodimer, inferred). On the procedure:
Measurement of Inhibitory Activity of Aptamer Against TGF-β1-2 Whether or not the nucleic acids of SEQ ID NOs: 6, 9, 19, 21, 26 inhibit the binding of TGF-β1 to the TGF-β receptor was evaluated by surface plasmon resonance method. For the measurement, Biacore T200 manufactured by GE Healthcare was used, and the measurement was performed by the method shown below. About 1500 RU of protein A was immobilized on the surface of a sensor chip of CM4 chip by using an amine coupling kit. 20 μL of Fc fusion TRII receptor (R&D) adjusted to 30 nM was injected as an analyte at a flow rate of 20 μL/min. As a result, the Fc fusion TRII receptor was immobilized on the surface of the sensor chip of the CM4 chip via protein A. Furthermore, a mixed solution of TGF-β1 (4 nM) or TGF-β1 (10 nM), and nucleic acid (30 nM) was injected. Solution A was used as the running buffer. Based on the RU value of a sample injected with TGF-β1 alone and the RU value before injection of TGF-β1, the effect of suppressing an increase in the RU value when TGF-β1 was injected in the presence of nucleic acid was calculated as the effect of inhibiting the binding of TGF-β1 to the TRII receptor.

In data set [4] the target is T1, TGF-β1. Nature of the data set: SPR. To be noted: tags: Recombinant Human TGF-β1, Peprotech; chain copies: 2 (homodimer, inferred).
The target of data set [5] is T1, TGF-β1. In words: cell_activity; 80 pM:20 nM. To be noted: tags: Recombinant Human TGF-β1, Peprotech; chain copies: 2 (homodimer, inferred); G4 (predicted). On the procedure:
as §1
Whether or not these nucleic acids inhibit the activity of TGF-β1 was evaluated by a luciferase reporter assay similar to that in Example 4, as in Example 1.

T1 sequence (P01137 279-390, one chain of several): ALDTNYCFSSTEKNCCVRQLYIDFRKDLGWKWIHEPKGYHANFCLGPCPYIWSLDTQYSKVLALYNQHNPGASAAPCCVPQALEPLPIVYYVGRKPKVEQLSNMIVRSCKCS

B1: SEQ ID NO: 27 (ssRNA)
RNA: GGGAAUGCACUAGUGUUCAACAUUUAGCAACACAAGUCGUCCCCCACGGCAAGCAGUCCUCAAUCCUGACAAGCUUGCACGUCGAGUCAG
modifications: 2'-F all pyrimidines (U,C)
B1: the binding result with TGF-β1 [1] was “binds”.

B2: SEQ ID NO: 6 (ssRNA)
RNA: GGGAUCCGCAUCUAGAGUACUUGUAUAAGUGGAGGGCGAGACUUGGGAGGGGCGAAUUGAAACGUCUACUGAAGCUAUCA
modifications: 2'-F all pyrimidines (U,C)
As for B2, the activity with TGF-β1 [2] was found to be 98 % inhibition. Besides, the binding signal in the data set with TGF-β1 [3] was found to be 75 % inhibition.

B3: SEQ ID NO: 17 (ssRNA)
RNA: GGGAGAACUUGGAGCUGAUGUCUGGAGUCCCCAUAUAUCACGUACAGUGUAGUGCGACGUCAGUC
modifications: 2'-F all pyrimidines (U,C)
For B3, the binding result with TGF-β1 [1] was “binds”.

B4: SEQ ID NO: 7 (ssRNA)
RNA: GGGAUCCGCAUCUAGAGUACGAAUAGUAAGGGAAUGACUCUCGGACCAAUGUAUUGCUAUAACGUCUACUGAAGCUAUCA
modifications: 2'-F all pyrimidines (U,C)
In the case of B4, the qualitative with TGF-β1 [4] is no more than 10 RU.

B5: SEQ ID NO: 10 (ssRNA)
RNA: GGGAUCCGCAUCUAGAGUACGAUGCAUGUUUUUAUAAAGUAUUGUUAUGUAAUGCAUCAAAACGUCUACUGAAGCUAUCA
modifications: 2'-F all pyrimidines (U,C)
B5: the qualitative with TGF-β1 [4] was no more than 10 RU.

B6: SEQ ID NO: 12 (ssRNA)
RNA: GGGAUCCGCAUCUAGAGUACCUAGAGGUGACUUGGGACGCGAGUUAUAAGGGAAUAGUCCAACGUCUACUGAAGCUAUCA
modifications: 2'-F all pyrimidines (U,C)
On to B6, for which, in the data set with TGF-β1 [4], the qualitative was no more than 10 RU.

B7: SEQ ID NO: 26 (ssRNA)
RNA: GGGAAUGCACUAGUGUUCAACCCCGACCAAUAGCAGCCCGUCUUUAACUAUUGGAAUCGCAUACGGGCCCAAGCUUGCACGUCGAGUCAG
modifications: 2'-F all pyrimidines (U,C)
Consider B7, for which the activity with TGF-β1 [2] worked out at 81 % inhibition. For the same molecule, the binding signal in the data set with TGF-β1 [3] turned out to be 84.3 % inhibition.

B8: SEQ ID NO: 35 (ssRNA)
RNA: GGGAGAACUUGGAGCUCCUGAAUAAGGGAGGGGAGACUUGUGGAGGGCAAGAGUGCGACGUCAGUC
modifications: 2'-F all pyrimidines (U,C)
Take B8: in the data set with TGF-β1 [5], the activity is 100 % inhibition.

B9: SEQ ID NO: 37 (ssRNA)
RNA: B8 RNA with A44U
modifications: 2'-F all pyrimidines (U,C)
As to B9, the activity with TGF-β1 [5] is 100 % inhibition.

B10: SEQ ID NO: 38 (ssRNA)
RNA: B8 RNA with A29U
modifications: 2'-F all pyrimidines (U,C)
For B10, in the data set with TGF-β1 [5], the activity is 100 % inhibition.

B11: SEQ ID NO: 40 (ssRNA)
RNA: B8 RNA with A50G, G51A
modifications: 2'-F all pyrimidines (U,C)
Regarding B11, the activity with TGF-β1 [5] is 100 % inhibition.

B12: SEQ ID NO: 9 (ssRNA)
RNA: GGGAUCCGCAUCUAGAGUACCAUAAGGGUGGGGAGACUUGGGAGAGGGCAAAGAAGACUAAACGUCUACUGAAGCUAUCA
modifications: 2'-F all pyrimidines (U,C)
B12: the activity with TGF-β1 [2] was 80 % inhibition. Moreover, the binding signal with TGF-β1 [3] is 70.2 % inhibition.

B13: SEQ ID NO: 8 (ssRNA)
RNA: GGGAUCCGCAUCUAGAGUACGAUGUGCUUGUGCUGAAAUUAGAUUUCGCCGACUUUCCCUAACGUCUACUGAAGCUAUCA
modifications: 2'-F all pyrimidines (U,C)
With B13, the qualitative with TGF-β1 [4] was no more than 10 RU.

B14: SEQ ID NO: 13 (ssRNA)
RNA: GGGAUCCGCAUCUAGAGUACACUAGUCACAUUGCGUGUACAUUACUCUGCGCAAUCGAUAAACGUCUACUGAAGCUAUCA
modifications: 2'-F all pyrimidines (U,C)
Regarding B14, the binding result in the data set with TGF-β1 [1] was “binds”.
